Measurements reported in patent US6372438.
Square brackets hold non-standard residues; d marks the D form. Ends that are not written are not given here. pY = N[C@@H](Cc1ccc(OP(=O)(O)O)cc1)C(=O)O

Target: 85 kD protein / PI3 kinase (phosphatidylinositol 3' kinase) of BALB/c 3T3 cells (mouse (BALB/c 3T3 cells))
Test: competition: range of peptide concentrations preincubated with 3T3 lysate before immobilised receptor m1; in vitro kinase and PI3 kinase assays

85 kD protein / PI3 kinase (phosphatidylinositol 3' kinase) of BALB/c 3T3 cells (mouse (BALB/c 3T3 cells)), sequence (P26450 2-724): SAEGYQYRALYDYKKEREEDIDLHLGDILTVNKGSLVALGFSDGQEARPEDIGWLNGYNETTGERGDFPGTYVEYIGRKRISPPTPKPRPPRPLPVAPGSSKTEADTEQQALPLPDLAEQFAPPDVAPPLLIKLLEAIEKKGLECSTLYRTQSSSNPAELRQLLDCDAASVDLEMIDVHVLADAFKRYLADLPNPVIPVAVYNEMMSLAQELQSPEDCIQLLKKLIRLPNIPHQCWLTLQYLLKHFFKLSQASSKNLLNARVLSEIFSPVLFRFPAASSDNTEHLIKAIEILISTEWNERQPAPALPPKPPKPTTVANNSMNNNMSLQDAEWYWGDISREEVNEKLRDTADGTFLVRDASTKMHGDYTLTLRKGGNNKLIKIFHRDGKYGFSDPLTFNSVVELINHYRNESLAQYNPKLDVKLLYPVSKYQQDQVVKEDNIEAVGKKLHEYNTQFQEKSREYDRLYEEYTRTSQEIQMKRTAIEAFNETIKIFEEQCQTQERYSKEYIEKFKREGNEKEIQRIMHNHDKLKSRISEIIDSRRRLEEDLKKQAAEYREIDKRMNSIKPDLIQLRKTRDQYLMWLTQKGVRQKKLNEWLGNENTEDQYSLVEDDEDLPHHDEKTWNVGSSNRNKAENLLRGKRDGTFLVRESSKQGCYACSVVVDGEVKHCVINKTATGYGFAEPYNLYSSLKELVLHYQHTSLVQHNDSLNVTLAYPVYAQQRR

- IC50: < 5 µM
Binder: GGYMDMSKDESID[pY]VPMLDM [peptide Y719P]
